The target of assay [1] is 4-1BB-AP binding sites (putative cell-surface 4-1BB ligand) on mature B cells and macrophages. The assay can be described thus: competition on A20 cells: 20 µg/ml rs4-1BB (50 fold excess) before 4-1BB-AP at 375 ng/ml as competitor; AP activity.
The target of another assay is T1, human vitronectin (human, UniProt P04004 20-478).
T1 construct: Bought protein
The assay can be described thus: ELISA, human vitronectin immobilized on microtiter plates, AP activity (data not shown). As for the experimental part:
Chalupny and colleagues (132) have proposed that 4-1BB Rg, a fusion protein consisting of the extracellular domain of 4-1BB and the Fc region of human IgG, bound to the extracellular matrix (ECM). The highest levels of 4-1BB Rg binding was to human vitronectin. In data not shown, an ELISA was performed using 4-1BB-AP and human vitronectin (Yelios Pharmaceuticals/GIBCO-BRL, Grand Island, N.Y.) immobilized at 0.007 μg–10 μg per well on microtiter plates. No binding of 4-1BB-AP based on AP activity was observed. To rule out the possibility that 4-1BB-AP was binding to proteins extrinsically attached to the cell surface (possible extracellular matrix components), B-cell lymphomas were washed in acid conditions prior to the binding assay (115). 4-1BB-AP still bound specifically to mature B-cell lymphomas (data not shown). We are currently determining whether a 4-1BB-ligand specifically expressed on B cells and macrophages exists, and whether 4-1BB-AP may bind to the ECM under particular binding conditions. It is possible that the ECM could facilitate the binding of 4-1BB to a specific cell-surface ligand.

The target in assay [2] is T2, mutated p56lck, construct C1 (cys 20-ser) (murine, UniProt P06240 2-509).
T2 construct: Expressed in HeLa cells with the vaccinia T7 system; also called mutant p56^lck C1
The assay can be described thus: coimmunoprecipitation with 53A2, in vitro kinase labeling, HeLa cells. The text has this:
(§1) High levels of coexpression have been achieved previously with this system to facilitate interactions between CD4 and p56^lck. To ensure consistent expression of 4-1BB, the transfected HeLa cells were briefly labeled with [^35S] cysteine before harvest. 4-1BB expression was monitored by immunoprecipitation of ^35S-labeled 4-1BB with 53A2.
(§2) FIGS. 32a–c show an analysis of the association of 4-1BB and p56^lck HeLa cells. […] Lysates were immunoprecipitated with antibodies to p56^lck and 4-1BB and labeled with [γ-^32P] ATP by the in vitro kinase reaction. The positions of p56^lck and 4-1BB are indicated to the right. Total HeLa celll lysates were immunoblotted with antibody top56^lck assay thep56^lck expression. FIGS. 32b and 32c show an immune complex kinase assay. Aliquots of the saline lysates were immunoprecipitated with antip56^lck serum (FIG. 32b) or 53A2 (FIG. 32c) followed by the in vitro kinase reaction with [γ-^32P] ATP as described in the legend to FIG. 30. […] HeLa celis were grown to 80% confluency on 100-mm petri dishes in DMEM containing 10% FBS and antibiotics. Cells were infected with 1×10^8 pfu of vaccinia virus expressing T7 RNA polymerase (136) 30 min before transfection. DNA was transfected in liposomes (Lipofectin, GIBCO, BRL). 15 μg DNA and 50 μl liposome diluted into 5 ml serum-free DMEM were incubated in 12×75 mm polystyrene tubes at room temperature for 15 min. […]

In assay [3] the target is T3, mutated p56lck, construct C2 (cys 23-ser) (murine, UniProt P06240 2-509).
T3 construct: Expressed in HeLa cells with the vaccinia T7 system; also called mutant p56^lck C2
The assay is described as above.
Excerpt: as §1, §2

T1 sequence (P04004 20-478 limits assumed): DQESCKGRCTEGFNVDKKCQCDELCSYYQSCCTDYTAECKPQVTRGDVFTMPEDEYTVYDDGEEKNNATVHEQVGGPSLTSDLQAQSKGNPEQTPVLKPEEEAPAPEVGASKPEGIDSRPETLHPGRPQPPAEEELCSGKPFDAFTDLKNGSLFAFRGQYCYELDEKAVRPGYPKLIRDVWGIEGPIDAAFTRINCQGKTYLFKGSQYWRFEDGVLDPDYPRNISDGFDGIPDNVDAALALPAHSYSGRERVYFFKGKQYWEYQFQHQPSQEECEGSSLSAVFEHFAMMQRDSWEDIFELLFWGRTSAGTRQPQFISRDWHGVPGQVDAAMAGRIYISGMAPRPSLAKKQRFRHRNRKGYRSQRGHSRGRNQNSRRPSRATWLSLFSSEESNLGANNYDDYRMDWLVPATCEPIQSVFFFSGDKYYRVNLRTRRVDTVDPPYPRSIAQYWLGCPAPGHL
T2 sequence (P06240 other isoform, or with tags, fused parts or gaps limits assumed, change not shown): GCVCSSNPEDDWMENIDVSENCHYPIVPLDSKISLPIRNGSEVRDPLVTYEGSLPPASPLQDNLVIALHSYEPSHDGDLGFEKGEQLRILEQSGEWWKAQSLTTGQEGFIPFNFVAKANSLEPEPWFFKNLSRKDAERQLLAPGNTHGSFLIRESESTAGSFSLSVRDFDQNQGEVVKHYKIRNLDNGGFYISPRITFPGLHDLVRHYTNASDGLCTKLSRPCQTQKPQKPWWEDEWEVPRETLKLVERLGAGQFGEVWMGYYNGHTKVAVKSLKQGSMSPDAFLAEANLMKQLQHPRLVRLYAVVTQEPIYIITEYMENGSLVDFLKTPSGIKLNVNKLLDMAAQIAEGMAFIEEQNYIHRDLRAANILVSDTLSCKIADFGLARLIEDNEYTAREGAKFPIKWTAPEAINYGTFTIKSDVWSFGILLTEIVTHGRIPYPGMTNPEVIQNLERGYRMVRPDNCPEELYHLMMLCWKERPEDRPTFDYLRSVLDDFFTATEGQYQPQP
T3 sequence (P06240 other isoform, or with tags, fused parts or gaps limits assumed, change not shown): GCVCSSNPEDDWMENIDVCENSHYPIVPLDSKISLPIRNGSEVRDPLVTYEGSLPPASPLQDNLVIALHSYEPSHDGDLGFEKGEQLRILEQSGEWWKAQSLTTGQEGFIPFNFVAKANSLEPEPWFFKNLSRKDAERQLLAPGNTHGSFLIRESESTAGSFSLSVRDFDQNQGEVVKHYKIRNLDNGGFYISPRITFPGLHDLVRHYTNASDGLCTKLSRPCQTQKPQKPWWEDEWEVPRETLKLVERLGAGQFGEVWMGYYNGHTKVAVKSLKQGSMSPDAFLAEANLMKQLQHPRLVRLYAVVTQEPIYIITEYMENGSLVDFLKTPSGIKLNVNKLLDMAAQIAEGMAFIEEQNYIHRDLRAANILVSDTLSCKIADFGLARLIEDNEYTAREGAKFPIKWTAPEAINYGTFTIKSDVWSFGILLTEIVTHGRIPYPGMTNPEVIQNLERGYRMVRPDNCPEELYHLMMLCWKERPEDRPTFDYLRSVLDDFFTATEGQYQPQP

Consider “recombinant soluble 4-1BB protein (extracellular domain of mouse 4-1BB) (from UniProt P20334 24-187) (receptor)”, for which the percent of 4-1BB-AP binding blocked in assay [1] was 70%.

B1: 4-1BB-AP fusion protein (extracellular domain of 4-1BB fused to human placental alkaline phosphatase) (other)
chain: VQNSCDNCQPGTFCRKYNPVCKSCPPSTFSSIGGQPNCNICRVCAGYFRFKKFCSSTHNAECECIEGFHCLGPQCTRCEKDCRPGQELTKQGCKTCSLGTFNDQNGTGVCRPWTNCSLDGRSVLKTGTTEKDVVCGPPVVSFSPSTTISVTPEGGPGGHSLQVL
notes: Signal peptide and entire extracellular domain of 4-1BB up to the first hydrophobic residue of the transmembrane region, joined in frame upstream of AP; secreted by NIH-3T3 transfectants; also called 4-1BB-Alkaline Phosphatase; 85 kDa fusion protein; not shown: human placental alkaline phosphatase as coded in the APtag-1 vector
In the case of B1, the binding result with human vitronectin was “no binding (tested: 0.007 µg-10 µg per well)”.

B2: mouse receptor protein 4-1BB (full length) (receptor)
chain: VQNSCDNCQPGTFCRKYNPVCKSCPPSTFSSIGGQPNCNICRVCAGYFRFKKFCSSTHNAECECIEGFHCLGPQCTRCEKDCRPGQELTKQGCKTCSLGTFNDQNGTGVCRPWTNCSLDGRSVLKTGTTEKDVVCGPPVVSFSPSTTISVTPEGGPGGHSLQVLTLFLALTSALLLALIFITLLFSVLKWIRKKFPHIFKQPFKKTTGAAQEEDACSCRCPQEEEGGGGGYEL
notes: Native on T cells (CTLL-R8, CTLL-2, F1, splenic T cells, thymocytes) or recombinant full length in Sf-21 and HeLa cells; also tested in lysates and blots; Seen as 30 kDa monomer, 55 kDa dimer and possibly 110 kDa tetramer; homodimer not proven; also called 4-1BBP; 4-1BBL (full length cDNA construct)
For B2, the binding result in assay [2] and in assay [3] was “no binding” in each case.
